Where a SMILES comes first, the peptide text is derived from it. Where no end group is shown, it is not given here. [ ]: non-standard residue; d: D form. The star is where a group is joined. Myristoyl = CCCCCCCCCCCCCC(=O)*; Nle = CCCC[C@H](N)C(=O)O; Dap = NC[C@H](N)C(=O)O
T1: human PrRP receptor, GPR10 (Homo sapiens, UniProt P49683)
T1 construct: host or cells: CHO cells
T1 sequence (P49683 1-370): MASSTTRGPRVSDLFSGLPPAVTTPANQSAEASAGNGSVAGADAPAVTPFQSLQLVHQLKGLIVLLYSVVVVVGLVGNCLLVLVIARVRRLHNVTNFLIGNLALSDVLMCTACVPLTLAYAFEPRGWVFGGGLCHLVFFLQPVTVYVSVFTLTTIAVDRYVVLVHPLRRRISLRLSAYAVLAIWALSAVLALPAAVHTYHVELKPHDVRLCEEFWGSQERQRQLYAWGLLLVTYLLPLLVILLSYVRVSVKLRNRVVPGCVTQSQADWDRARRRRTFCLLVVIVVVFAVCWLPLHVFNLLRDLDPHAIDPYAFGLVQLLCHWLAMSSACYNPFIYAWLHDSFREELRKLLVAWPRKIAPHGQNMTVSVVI

T2: rat PrRP receptor in RC-4B/C cells (rat, UniProt Q64121 1-370)
T2 construct: whole, on cells; also called the rat receptor; GPR10
T2 sequence (looked up): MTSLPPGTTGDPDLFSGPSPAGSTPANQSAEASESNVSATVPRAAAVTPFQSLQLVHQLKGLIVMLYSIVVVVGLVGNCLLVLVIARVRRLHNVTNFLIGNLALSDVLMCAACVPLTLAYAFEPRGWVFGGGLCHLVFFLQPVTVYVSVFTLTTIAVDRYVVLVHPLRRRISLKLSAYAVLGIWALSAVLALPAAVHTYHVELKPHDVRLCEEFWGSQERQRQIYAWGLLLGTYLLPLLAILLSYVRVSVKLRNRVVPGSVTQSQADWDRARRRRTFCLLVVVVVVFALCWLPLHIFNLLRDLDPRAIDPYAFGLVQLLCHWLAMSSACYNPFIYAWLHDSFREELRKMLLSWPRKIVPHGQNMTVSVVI

T3: human PrRP receptor, GPR10, transfected in CHO cells (human, UniProt P49683 1-370)
T3 construct: whole, on cells; also called human GPR10 receptor; the human receptor GPR10 in CHO cells
T3 sequence (looked up): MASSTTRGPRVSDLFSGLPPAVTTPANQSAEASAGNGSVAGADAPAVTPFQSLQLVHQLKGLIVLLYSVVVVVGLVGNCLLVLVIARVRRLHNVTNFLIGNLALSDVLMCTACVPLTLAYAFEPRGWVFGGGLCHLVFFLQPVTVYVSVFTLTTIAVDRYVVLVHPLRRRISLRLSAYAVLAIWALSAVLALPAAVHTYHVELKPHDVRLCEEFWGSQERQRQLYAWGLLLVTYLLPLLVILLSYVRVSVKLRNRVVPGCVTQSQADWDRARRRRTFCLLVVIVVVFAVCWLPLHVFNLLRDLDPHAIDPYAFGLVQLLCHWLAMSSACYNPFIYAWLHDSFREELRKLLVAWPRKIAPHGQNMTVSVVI


Key:
[1] = target: T1, human PrRP receptor, GPR10; test: Competitive binding to CHO cells with transfected human GPR10; settings: CHO cells with transfected human GPR10, human ^125I—PrRP31
Description: Competitive binding experiments were performed according to Motulsky and Neubig (Motulsky, A., et al., “Analyzing radioligand binding data,” Curr Protoc Neurosci, Chapter 7, Unit 7.5, 2002).
CHO cells with transfected human PrRP receptor, GPR10 (Perkin Elmer, USA) were grown on 24-well plates coated with polyethyleneimine. The cells were grown to the optimal density of 40-80 thousand cells per well. The following agents were used for the experiment: binding buffer (25 mmol·l^−1 Tris, pH 7.4; 118 mmol·l^−1 NaCl, 10 mmol·l^−1 MgCl2, 1 mmol·l^−1 CaCl2, 5.5 mmol·l^−1 glucose, 0.5 mg/ml BSA), unlabelled analogs of PrRP of final concentration within 10^−11 to 10^−4 mol·l^−1, and human ^125I—PrRP31 of final concentration of 5×10^−11 mol·l^−1.
(§1) Plates were incubated for 60 minutes at room temperature. After incubation, the cells were solubilized in 0.1 mol/l solution of NaOH and the radioactivity bound to the cells was counted using a γ-counter. The experiments were performed in duplicate and repeated at least three times.
For evaluation of competitive binding experiments, the program Graph Pad Prism Software (San Diego, Calif., USA) was used. A method of nonlinear regression assuming one-site binding was used.

fasted C57BL/6 mice = test: Food intake in fasted mice after SC administration; assay type: in vivo, mouse; settings: fasted C57BL/6 mice, 5 mg/kg SC, 45 min
Outline: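 Male C57BL/6 mice, food-deprived 17 h, received saline, PrRP or lipidated analogs either SC at 1-10 mg/kg or ICV into the third ventricle at 4 nmol/mouse.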

[2] = target: T2, rat PrRP receptor in RC-4B/C cells; test: competition with 125I-rat PrRP31 on RC-4B/C cells
[3] = target: T2, rat PrRP receptor in RC-4B/C cells; test: competition with 125I-human PrRP31 on RC-4B/C cells; Ki by Cheng-Prusoff
[4] = target: T2, rat PrRP receptor in RC-4B/C cells; test: competition with 125I-rat PrRP31 on RC-4B/C cells; Ki by Cheng-Prusoff
Description: The rat pituitary cell line RC-4B/C (ATCC, Manassas, USA) was grown on 24-well plates which had their bottom coated with polyethyleneimine. The cells were grown to the optimal density of 300-450 thousand per well.
as §1

[5] = target: T3, human PrRP receptor, GPR10, transfected …; test: competition with 125I-human PrRP31 on CHO cells with transfected human GPR10
Outline: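 Incubation lasted 60 min at room temperature. Cells were then solubilised in 0.1 mol/l NaOH and bound radioactivity γ-counted; duplicates, at least three repeats.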

Row | Ki [1] | Ki [2] | Ki [3] | Ki [4] | Ki [5] | Molecule | Food intake in mice (5 mg/kg SC) % saline-treated group (45 min) (fasted C57BL/6 mice)
1 | 1.92 ± 0.43 nM |  |  |  |  | CCCC[C@H](NC(=O)[C@H](CO)NC(=O)[C@H](Cc1c[nH]cn1)NC(=O)[C@H](CCC(N)=O)NC(=O)[C@H](Cc1c[nH]cn1)NC(=O)[C@H](C)NC(=O)[C@H](CCCNC(=N)N)NC(=O)[C@@H](N)CO)C(=O)N[C@@H](CCC(=O)O)C(=O)N[C@H](C(=O)N[C@@H](CCCNC(=N)N)C(=O)N[C@H](C(=O)N1CCC[C@H]1C(=O)N[C@@H](CC(=O)O)C(=O)N[C@H](C(=O)N[C@@H](CC(N)=O)C(=O)N1CCC[C@H]1C(=O)N[C@@H](C)C(=O)N[C@@H](Cc1c[nH]c2ccccc12)C(=O)N[C@@H](Cc1ccc(O)cc1)C(=O)N[C@H](C(=O)NCC(=O)N[C@@H](CCCNC(=N)N)C(=O)NCC(=O)N[C@H](C(=O)N[C@@H](CCCNC(=N)N)C(=O)N1CCC[C@H]1C(=O)N[C@H](C(=O)NCC(=O)N[C@@H](CCCNC(=N)N)C(=O)N[C@@H](Cc1ccccc1)C(N)=O)C(C)C)[C@@H](C)CC)[C@@H](C)O)[C@@H](C)CC)[C@@H](C)O)[C@@H](C)O [Analog 14] (H-SRAHQHS[Nle]ETRTPDINPAWYTGRGIRPVGRF-NH2) | 100%
2 |  | 1.78 nM | 3.01 nM | 1.54 nM |  | SRTHRHSMEIRTPDINPAWYASRGIRPVGRF-NH2 (also called hPrRP31; analog no; 50) [Human PrRP31] | 
3 |  |  | 2 nM | 2.28 nM |  | [Dap]RTHRHS[Nle]EIRTPDINPAWYASRGIRPVGRF-NH2 (N-terminus assumed; SMILES CCCC[C@H](NC(=O)[C@H](CO)NC(=O)[C@H](Cc1c[nH]cn1)NC(=O)[C@H](CCCNC(=N)N)NC(=O)[C@H](Cc1c[nH]cn1)NC(=O)[C@@H](NC(=O)[C@H](CCCNC(=N)N)NC(=O)[C@@H](N)CN)[C@@H](C)O)C(=O)N[C@@H](CCC(=O)O)C(=O)N[C@H](C(=O)N[C@@H](CCCNC(=N)N)C(=O)N[C@H](C(=O)N1CCC[C@H]1C(=O)N[C@@H](CC(=O)O)C(=O)N[C@H](C(=O)N[C@@H](CC(N)=O)C(=O)N1CCC[C@H]1C(=O)N[C@@H](C)C(=O)N[C@@H](Cc1c[nH]c2ccccc12)C(=O)N[C@@H](Cc1ccc(O)cc1)C(=O)N[C@@H](C)C(=O)N[C@@H](CO)C(=O)N[C@@H](CCCNC(=N)N)C(=O)NCC(=O)N[C@H](C(=O)N[C@@H](CCCNC(=N)N)C(=O)N1CCC[C@H]1C(=O)N[C@H](C(=O)NCC(=O)N[C@@H](CCCNC(=N)N)C(=O)N[C@@H](Cc1ccccc1)C(N)=O)C(C)C)[C@@H](C)CC)[C@@H](C)CC)[C@@H](C)O)[C@@H](C)CC, analog of human PrRP31) [analog no. 11] | 
4 |  | 0.48 nM | 0.66 nM | 0.41 nM | 4.33 nM | Myristoyl-TPDINPAWYASRGIRPVGRF-NH2 (SMILES CCCCCCCCCCCCCC(=O)N[C@H](C(=O)N1CCC[C@H]1C(=O)N[C@@H](CC(=O)O)C(=O)N[C@H](C(=O)N[C@@H](CC(N)=O)C(=O)N1CCC[C@H]1C(=O)N[C@@H](C)C(=O)N[C@@H](Cc1c[nH]c2ccccc12)C(=O)N[C@@H](Cc1ccc(O)cc1)C(=O)N[C@@H](C)C(=O)N[C@@H](CO)C(=O)N[C@@H](CCCNC(=N)N)C(=O)NCC(=O)N[C@H](C(=O)N[C@@H](CCCNC(=N)N)C(=O)N1CCC[C@H]1C(=O)N[C@H](C(=O)NCC(=O)N[C@@H](CCCNC(=N)N)C(=O)N[C@@H](Cc1ccccc1)C(N)=O)C(C)C)[C@@H](C)CC)[C@@H](C)CC)[C@@H](C)O, also called analog no; 13) [myristoylated human PrRP20 (analog no. 55)] | 

Reference: patent US9937235B2, “Lipidated peptides as anti-obesity agents” (USTAV ORGANICKE CHEMIE A BIOCHEMIE AKADEMIE VED CR, V.V.I, priority 2012, dated 2018)
